Measurements taken from the supplement of paper PMC7877785.
± gives the uncertainty stated by the source.

Assay: self-splicing fitness, log relative to wild type (ln ratio); higher = more splicing; Tetrahymena group I intron in knt gene, E. coli kanamycin selection, DiMSum; sequences stand for … in CUCUCU…GGAGGGAAAAGUUAUCAGGCAUGCACCUGGUAGCUAGUCUUUAAACCAAUAGAUUGCAUCGGUUUAAAAGGCAAGACCGUCAAAUUGCGGGAAAGGGGUCAACAGCCGUUCAGUACCAAGUCUCAGGGGAAACUUUGAGAUGGCCUUGCAAAGGGUAUGGUAAUAAGCUGACGGACAUGGUCCUAACCACGCAGCCAAGUCCUAAGUCAACAGAUCUUCUGUUGAUAUGGAUGCAGUUCACAGACUAAAUGUCGGUCGGGGAAGAUGUAUUCUUCUCAUAAGAUAUAGUCGGACCUCUCCUUAAUGGGAGCUAGCGGAUGAAGUGAUGCAACACUGGAGCCGCUGGGAACUAAUUUGUAUGCGAAAGUAUAUUGAUUAGUUUUGGAGUACUCGUGGUCG
Method in brief: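 Six replicate transformations of E. coli BL21(DE3) with a pET-22b(+) library were grown overnight at 37°C or 30°C. The library randomised all eight P1ex-region intron nucleotides, the intron lying in the knt kanamycin-resistance gene, and plates were LB agar with or without 25 μg/mL kanamycin plus 100 μg/mL carbenicillin, 50 μM IPTG and 0.2% rhamnose. Pooled colonies were amplicon-sequenced on an Illumina HiSeq 2500, and fitness is the DiMSum error-weighted combination of wild-type-normalised replicate fold changes, kanamycin versus none.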

Sequence	self-splicing fitness (ln) (30 °C)	self-splicing fitness (ln) (37 °C)
UCUCAGCAAUAUUACGAGAU	-4.62 ± 0.46	-2.85 ± 0.35
UCUCAGCAAUAUUACGAGCA	-0.507 ± 0.081	0.222 ± 0.12
UCUCAGCAAUAUUACGAGCG	-0.123 ± 0.091	-0.0856 ± 0.1
UCUCAGCAAUAUUACGAGGU		-1.53 ± 0.25
UCUCAGCAAUAUUACGCACC	-2.18 ± 0.42	
UCUCAGCAAUAUUACGCAGC	-3.54 ± 0.24	-2.32 ± 0.21
UCUCAGCAAUAUUACGCCGG	-2.33 ± 0.21	
UCUCAGCAAUAUUACGCCUG		-2.27 ± 0.47
UCUCAGCAAUAUUACGCUAA	-3.89 ± 0.33	-2.23 ± 0.25
UCUCAGCAAUAUUACGCUGU	-2.3 ± 0.21	-1.17 ± 0.31
UCUCAGCAAUAUUACGGAGA	-3.23 ± 0.41	-3.43 ± 0.39
UCUCAGCAAUAUUACGGCCA	-2.65 ± 0.19	-1.69 ± 0.21
UCUCAGCAAUAUUACGGGAC	-2.31 ± 0.24	-2.87 ± 0.38
UCUCAGCAAUAUUACGGUAG	-2.3 ± 0.098	-1.99 ± 0.15
UCUCAGCAAUAUUACGGUCC	-3 ± 0.31	
UCUCAGCAAUAUUACGUAGC	-1.31 ± 0.17	-1.16 ± 0.23
UCUCAGCAAUAUUACGUCGA	-2.07 ± 0.11	-0.925 ± 0.12
UCUCAGCAAUAUUACGUGAG	-1.2 ± 0.054	-0.483 ± 0.072
UCUCAGCAAUAUUACGUUUA	-2.98 ± 0.18	-1.08 ± 0.13
UCUGAGCAAUAUUACGAAUA		-1.82 ± 0.48
UCUGAGCAAUAUUACGACAG	-1.02 ± 0.12	-1.04 ± 0.15
UCUGAGCAAUAUUACGACCU		-2.62 ± 0.31
UCUGAGCAAUAUUACGACUA	-2.49 ± 0.19	-1.64 ± 0.17
UCUGAGCAAUAUUACGACUU	-3.11 ± 0.33	
UCUGAGCAAUAUUACGAGCG	-1.93 ± 0.15	-2.37 ± 0.39
UCUGAGCAAUAUUACGAGGU	-3.18 ± 0.23	

Sequence	self-splicing fitness (ln) (30 °C)	self-splicing fitness (ln) (37 °C)
UCUGAGCAAUAUUACGAUGC		-0.729 ± 0.36
UCUGAGCAAUAUUACGCAUU	-3.77 ± 0.37	-2.15 ± 0.31
UCUGAGCAAUAUUACGCCAG		-0.871 ± 0.46
UCUGAGCAAUAUUACGCCUU	-3.06 ± 0.12	-1.54 ± 0.14
UCUGAGCAAUAUUACGCGUU	-4.91 ± 0.45	-2.63 ± 0.28
UCUGAGCAAUAUUACGCUAA	-3.49 ± 0.34	
UCUGAGCAAUAUUACGGAAA	-3.08 ± 0.18	-1.64 ± 0.15
UCUGAGCAAUAUUACGGGCU		-3.79 ± 0.42
UCUGAGCAAUAUUACGUACC	-3.19 ± 0.41	-1.96 ± 0.31
UCUGAGCAAUAUUACGUCAU	-3.81 ± 0.35	-2.76 ± 0.2
UCUGAGCAAUAUUACGUCGC	-4.03 ± 0.37	-2.54 ± 0.36
UCUGAGCAAUAUUACGUCUA	-1.67 ± 0.18	-2.17 ± 0.26
UCUGAGCAAUAUUACGUGAG	-1.86 ± 0.11	-0.646 ± 0.097
UCUGAGCAAUAUUACGUGUC	-4.14 ± 0.32	
UCUGAGCAAUAUUACGUUAA	-3.47 ± 0.29	-0.512 ± 0.15
UCUGAGCAAUAUUACGUUGU	-4.12 ± 0.21	-1.96 ± 0.18
UCUUAGCAAUAUUACGACAA	-2.45 ± 0.32	-1.18 ± 0.29
UCUUAGCAAUAUUACGACCG	-1.95 ± 0.36	-0.528 ± 0.34
UCUUAGCAAUAUUACGACUA		-2.26 ± 0.45
UCUUAGCAAUAUUACGAGCG	-1.36 ± 0.13	-0.498 ± 0.15
UCUUAGCAAUAUUACGAGGG	-1.87 ± 0.16	-2.1 ± 0.25
UCUUAGCAAUAUUACGAUAA	-2.73 ± 0.46	-2.27 ± 0.4
UCUUAGCAAUAUUACGAUCC	-1.98 ± 0.38	
UCUUAGCAAUAUUACGCAGA	-1.55 ± 0.46	-1.36 ± 0.29
UCUUAGCAAUAUUACGCCAG	-2.74 ± 0.27	
UCUUAGCAAUAUUACGCCUU		-1.86 ± 0.3

Sequence	self-splicing fitness (ln) (30 °C)	self-splicing fitness (ln) (37 °C)
UCUUAGCAAUAUUACGCGAG	-2.25 ± 0.17	-2.92 ± 0.28
UCUUAGCAAUAUUACGGACA	-2.63 ± 0.2	-1.19 ± 0.14
UCUUAGCAAUAUUACGGAGU	-3.29 ± 0.13	-2.28 ± 0.11
UCUUAGCAAUAUUACGGGUA	-1.46 ± 0.076	-0.741 ± 0.084
UCUUAGCAAUAUUACGGGUG	-0.927 ± 0.055	-0.165 ± 0.069
UCUUAGCAAUAUUACGGUUA		-2.37 ± 0.39
UCUUAGCAAUAUUACGUAAC	-3.34 ± 0.26	-1.95 ± 0.32
UCUUAGCAAUAUUACGUACA	-2.58 ± 0.19	-1.28 ± 0.16
UCUUAGCAAUAUUACGUAGC	-3.98 ± 0.46	-1.98 ± 0.21
UCUUAGCAAUAUUACGUCAG	-1.01 ± 0.16	-1.28 ± 0.2
UCUUAGCAAUAUUACGUGUA	-0.944 ± 0.17	-1.19 ± 0.2
UCUUAGCAAUAUUACGUUCG	-2.21 ± 0.11	-1.38 ± 0.18
UCUUAGCAAUAUUACGUUUG	-3.07 ± 0.17	-2.48 ± 0.27
UGAAAGCAAUAUUACGAAAC		-1.79 ± 0.47
UGAAAGCAAUAUUACGAAGC		-2.07 ± 0.28
UGAAAGCAAUAUUACGAAUG	-0.602 ± 0.066	-0.0842 ± 0.078
UGAAAGCAAUAUUACGAAUU	-1.7 ± 0.26	-1.66 ± 0.29
UGAAAGCAAUAUUACGAGCA	-0.581 ± 0.089	0.406 ± 0.11
UGAAAGCAAUAUUACGAGUU	-3.31 ± 0.15	-0.915 ± 0.095
UGAAAGCAAUAUUACGAUGG	-1.59 ± 0.086	-0.618 ± 0.11
UGAAAGCAAUAUUACGCAUC		-3.14 ± 0.28
UGAAAGCAAUAUUACGCUCC	-1.4 ± 0.12	-0.227 ± 0.14
UGAAAGCAAUAUUACGCUUC	-2.32 ± 0.42	-2.29 ± 0.29
UGAAAGCAAUAUUACGGACA	-0.0695 ± 0.088	-0.28 ± 0.096
UGAAAGCAAUAUUACGGCGU	-1.12 ± 0.095	0.0159 ± 0.11
UGAAAGCAAUAUUACGGGCA	-0.0393 ± 0.081	0.386 ± 0.092

Sequence	self-splicing fitness (ln) (30 °C)	self-splicing fitness (ln) (37 °C)
UGAAAGCAAUAUUACGGUUC	-4.11 ± 0.26	-2.41 ± 0.23
UGAAAGCAAUAUUACGUAAG	-0.503 ± 0.087	-0.0639 ± 0.12
UGAAAGCAAUAUUACGUCCC	-2.54 ± 0.45	
UGAAAGCAAUAUUACGUUCA	-2.03 ± 0.13	-1.48 ± 0.14
UGAAAGCAAUAUUACGUUCG	-1.51 ± 0.094	-0.54 ± 0.11
UGACAGCAAUAUUACGAAAC	-3.96 ± 0.24	-1.96 ± 0.26
UGACAGCAAUAUUACGAUAA	-0.561 ± 0.052	0.4 ± 0.072
UGACAGCAAUAUUACGAUAU	-2.67 ± 0.16	-1.9 ± 0.14
UGACAGCAAUAUUACGAUUU	-0.733 ± 0.094	-0.108 ± 0.1
UGACAGCAAUAUUACGCACA	0.341 ± 0.092	0.528 ± 0.12
UGACAGCAAUAUUACGCACC	-1.38 ± 0.12	-0.767 ± 0.17
UGACAGCAAUAUUACGCCUA	0.107 ± 0.069	0.414 ± 0.086
UGACAGCAAUAUUACGCGAC	-1.82 ± 0.14	-1.86 ± 0.19
UGACAGCAAUAUUACGCUAC	-2.24 ± 0.43	-1.56 ± 0.26
UGACAGCAAUAUUACGCUGU	-4.01 ± 0.24	-3.42 ± 0.27
UGACAGCAAUAUUACGCUUC	-3.56 ± 0.25	-2.29 ± 0.23
UGACAGCAAUAUUACGGACG	0.0374 ± 0.078	0.415 ± 0.11
UGACAGCAAUAUUACGGAUU	-2.54 ± 0.094	-2.29 ± 0.13
UGACAGCAAUAUUACGGCAA	-1.41 ± 0.14	-0.13 ± 0.17
UGACAGCAAUAUUACGUCAC	-3.74 ± 0.17	-3.16 ± 0.23
UGACAGCAAUAUUACGUCGA	-0.222 ± 0.092	-0.143 ± 0.098
UGACAGCAAUAUUACGUGGU	-3.23 ± 0.15	-2.22 ± 0.12
UGACAGCAAUAUUACGUGUG	-0.953 ± 0.06	-0.807 ± 0.069
UGACAGCAAUAUUACGUGUU	-4.32 ± 0.19	-2.22 ± 0.19
